# B1: SUN domain-containing protein 2 (Homo sapiens), Q9UH99 (parent)
# chain: MSRRSQRLTRYSQGDDDGSSSSGGSSVAGSQSTLFKDSPLRTLKRKSSNMKRLSPAPQLGPSSDAHTSYYSESLVHESWFPPRSSLEELHGDANWGEDLRVRRRRGTGGSESSRASGLVGRKATEDFLGSSSGYSSEDDYVGYSDVDQQSSSSRLRSAVSRAGSLLWMVATSPGRLFRLLYWWAGTTWYRLTTAASLLDVFVLTRRFSSLKTFLWFLLPLLLLTCLTYGAWYFYPYGLQTFHPALVSWWAAKDSRRPDEGWEARDSSPHFQAEQRVMSRVHSLERRLEALAAEFSSNWQKEAMRLERLELRQGAPGQGGGGGLSHEDTLALLEGLVSRREAALKEDFRRETAARIQEELSALRAEHQQDSEDLFKKIVRASQESEARIQQLKSEWQSMTQESFQESSVKELRRLEDQLAGLQQELAALALKQSSVAEEVGLLPQQIQAVRDDVESQFPAWISQFLARGGGGRVGLLQREEMQAQLRELESKILTHVAEMQGKSAREAAASLSLTLQKEGVIGVTEEQVHHIVKQALQRYSEDRIGLADYALESGGASVISTRCSETYETKTALLSLFGIPLWYHSQSPRVILQPDVHPGNCWAFQGPQGFAVVRLSARIRPTAVTLEHVPKALSPNSTISSAPKDFAIFGFDEDLQQEGTLLGKFTYDQDGEPIQTFHFQAPTMATYQVVELRILTNWGHPEYTCIYRFRVHGEPAH
# Variants of: B1
# Conditions: with syne1_human SYNE1, Q8NF91
row,effect of a mutation on the interaction,Variant
1,increasing interaction strength,C705A
2,disrupting interaction strength,I579E
